Source: patent publication US20170008949A1 (Hoffmann-La Roche, published 2017)

How the values were obtained:
[1] = target: recombinant non-glycosylated human PAI-1 (active), produced in E. coli as N-terminal 6xHis-tagged fusion … (human, UniProt P05121 24-402); assay: cell-based or functional assay
[2] = target: recombinant glycosylated human PAI-1 (active), produced in insect cells (human, UniProt P05121 24-402, glycosylated (sites not given)); assay: cell-based or functional assay
Sequence of recombinant glycosylated human PAI-1 (active), produced in insect cells (P05121 24-402 limits assumed): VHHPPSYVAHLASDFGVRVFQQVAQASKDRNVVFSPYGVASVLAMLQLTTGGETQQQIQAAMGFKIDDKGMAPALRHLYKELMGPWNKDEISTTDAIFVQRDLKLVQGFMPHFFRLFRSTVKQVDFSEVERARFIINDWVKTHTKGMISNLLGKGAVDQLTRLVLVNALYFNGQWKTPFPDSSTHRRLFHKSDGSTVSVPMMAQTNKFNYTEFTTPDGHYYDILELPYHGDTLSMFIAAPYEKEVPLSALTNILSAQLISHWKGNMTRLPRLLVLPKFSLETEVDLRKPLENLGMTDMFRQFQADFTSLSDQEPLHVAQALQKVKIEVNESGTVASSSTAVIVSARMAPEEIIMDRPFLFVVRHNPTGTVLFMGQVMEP

Sequence of recombinant non-glycosylated human PAI-1 (active), produced in E. coli as N-terminal 6xHis-tagged fusion … (P05121 24-402 limits assumed): as above

B1: PAI1-0046 (reference PAI-1 latency inducing antibody with a human IgG4 SPLE Fc-region) (antibody, V domains shown)
VH: QVQLVQSGAEVKKPGASVKVSCKASGYTFTNYGMNWVRQAPGQGLEWMGWINTYTGEPTYTDDFKGRFTMTLDTSISTAYMELSRLRSDDTAVYYCAKDVSGFVFDYWGQGTLVTVSS
VL: DIVMTQSPDSLAVSLGERATINCKSSQSLLNIIKQKNCLAWYQQKPGQPPKLLIYWASTRESGVPDRFSGSGSGTDFTLTISSLQAEDVAVYYCQQYYSYPYTFGQGTKLEIKR
IC50 (µM) vs. human PAI-1, PAI-1 inhibition assay (residual rPA serine protease activity) [1]: 0.005 µM
IC50 (µM) vs. human PAI-1, PAI-1 inhibition assay (residual rPA serine protease activity) [2]: 0.065 µM
